Assay results published in the supplement of paper PMC9170038.

System: MS2 coat protein
Assay: apparent KD of MS2 coat protein; designed switch direction (-1 OFF switch, 1 ON switch): -1; higher = weaker reporter binding
Outline: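 Designed RNA switches were transcribed on Illumina chips by stalled E. coli RNA polymerase and titrated with SNAP-549-labelled MS2 coat protein from 0.7 or 1.5 nM, doubling to 3 µM. Step length ran from 0.8–1.5 h at the lowest concentration to 10–20 min at the highest. The apparent KD is the median over clusters for each design, from curve-fitted normalised cluster fluorescence.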

[1] = Eterna round: R95, input ligand: FMN 200 uM
[2] = Eterna round: R95, input ligand: microRNA oligo, concentration not stated
[3] = Eterna round: R95, input ligand: none
[4] = input ligand: microRNA oligo, concentration not stated

Sequence | apparent KD of MS2 coat protein [1] [nM] | apparent KD of MS2 coat protein [2] [nM] | apparent KD of MS2 coat protein [3] [nM] | apparent KD of MS2 coat protein (input ligand: FMN 200 uM) [nM] | apparent KD of MS2 coat protein (input ligand: none) [nM] | apparent KD of MS2 coat protein [4] [nM]
GAAAAGGUAGGAUAUACGAAAAAAAAGGGUAGAAAAAAUACACAUGAGGAUCACCCAUGUAGAAGGACCAAAAG [salish99_ex2_r3_073] (puzzle: Exclusion 2) | 138 | 23.9 | 29.7 | – | – | –
GAAAAGGUAGGAUAUACGAAAAAAAAGGGUAGAUAAAAAACACAUGAGGAUCACCCAUGUAGAAGGACCAAAAG [salish99_ex2_r3_078] (puzzle: Exclusion 2) | 101 | 41.8 | 29.3 | – | – | –
GAAAAGGUAGGAUAUACGAAAAAAAAGGGUAGUAAAAAAACACAUGAGGAUCACCCAUGUAGAAGGACCAAAAG [salish99_ex2_r3_079] (puzzle: Exclusion 2) | 35.7 | 20.9 | 18.6 | – | – | –
GAAAAUAGUGAGGAUAUAUCACGGAUACCCGAGAUAGAAGGCACUACAUGAGGAUCACCCAUGUUCGGGUGUCC [Areleon] (Eterna round: R97, puzzle: Exclusion 6) | – | – | – | 107 | 79.3 | –
GAAAGGUAAGGAUAUGCGACUACGGUGAGAUGGUUGACCUGACAUGAGGAUCACCCAUGUAGAAGGUGCUCAAU [Eternabot (L2) Solution 33] (Eterna round: R97, puzzle: Exclusion 2) | – | – | – | 67.8 | 64.2 | –
GAAGCACAUGAGGAUCACCCAUGUGAGGAUAUCCGUCUGGUCCGGCCGGGCCAGUACCGGAGAAGGCGCGUCGA [Excls1-Va] (puzzle: Exclusion 1) | – | 27.6 | – | – | – | –
GAAUAACAUGAGGAUCACCCAUGUUAGGAUAUGACGUCGUUUAGUCUUUAAACGAGCGUUAGAAGGAACAGGUG [Eternabot (L1) Solution 11] (Eterna round: R97, puzzle: Exclusion 1) | – | – | – | 70.8 | 56.8 | –
GAAUAGCAAGCGAGAUCCCACAUGAGGAUCACCCAUGUGCUCGUCUUAUAAAGUACUGUGACGAAAGUCACGGUACA [Mat - Sensor, turn-off var - Eli Mod - D12] (Eterna round: R97, puzzle: Sensor, turn-off variant 1) | – | – | – | 14.6 | 17.8 | –
GAAUAGCAAGCGAGAUCCCACAUGAGGAUCACCCAUGUGCUCGUCUUAUAAAGUACUGUGACGAGAGUCACGGUACA [Mat - Sensor, turn-off var - Eli Mod - D14] (Eterna round: R97, puzzle: Sensor, turn-off variant 1) | – | – | – | 14.3 | 16.1 | –
GAAUGCAAGUAAAGAUCUUACAUGAGGAUCACCCAUGUGCUCGUCUUAUAAAGUACUAUCACGAAAGUGAUAGUACA [Mat - Sensor v3 - turn-off var 1 - Eli Mod - D90] (puzzle: Sensor v3, turn-off variant 1) | 16.3 | 84.1 | 17.4 | – | – | –
GAAUUAAUUAAUUAAUAAUACAUGAGGAUCACCCAUGUAGAUCCUACAUACAAGCUAAGUAGCUCGUCUUAUAAUUA [Stov1/2-A2] (Eterna round: R97, puzzle: Sensor, turn-off variant 1) | – | – | – | 313 | 261 | –
GAAUUCCGAGGAUAUUCGGAACCAGACAUGAGGAUCACCCAUGUGAUGCAGUUUCCGUUCGAAGAAGGUGGAACGC [Eternabot (Original) Solution 28] (Eterna round: R97, puzzle: Exclusion 5) | – | – | – | 22.5 | 23.3 | –
GAAUUGUGAGGAUAUUAGUUGUACGUCAAUAGACGUAUAAGUGAGAAGGCACAUGAGGAUCACCCAUGUUCCUG [salish99_ex4_r4_401] (Eterna round: R97, puzzle: Exclusion 4) | – | – | – | 57.8 | 19.4 | –
GACAUGAGGAUCACCCAUGUAAGGGAUGAACUUCUGGGUAGCUAGGAUAUGGCUACAAAGGUGGACCAGAAGGAGCGUACCCUU [Amaqura] (Eterna round: R96, puzzle: Exclusion NG 3) | – | – | – | 10.6 | 28.6 | 14.3
GACCACUCAGGAUAUCGGACGGGAAACAUGAGGAUCACCCAUGUGAUGCUGAUAUUCGCACGAGAAGGGAGAAUGA [EX5 B.21] (Eterna round: R97, puzzle: Exclusion 5) | – | – | – | 19.8 | 18.8 | –
GACCUCACGGUCAGGAUAUCAGAACGUAAUGCGCAUGAGAAGGGACAUGAGGAUCACCCAUGUGGGCUCGUCGC [Maedvequ] (puzzle: Brourd's mod of Exclusion 4) | – | 11.8 | – | – | – | –
GACCUGGCGAAGGAUAUCUGGAGGGAGUACAUCAGAGAAGGUCGCACAUGAGGAUCACCCAUGUUUGCAAUAGC [Eternabot (Original) Solution 22] (Eterna round: R97, puzzle: Exclusion 6) | – | – | – | 25.7 | 21.6 | –
GACGAAAGAGGAUAUACCGUACGACCCUCGUCAGGGAUCCGACAUGAGGAUCACCCAUGUAGAAGGCUUGCGUC [Eternabot (Original) Solution 25] (Eterna round: R97, puzzle: Exclusion 2) | – | – | – | 763 | 200 | –
GACGCUGACCGAGGAUAUACAAUAAAACAACAAACUCCUCGUGUCAGAACAUGAGGAUCACCCAUGUAGAAGGCGGCAGGUCUA [Rilebibidi] (Eterna round: R96, puzzle: Exclusion NG 2) | – | – | – | 78.5 | 58.1 | 44.4
GACUAAAUGUGGUUUGGUUACAUGAGGAUCACCCAUGUUGGUCUAAGAACAUGUCUUUUGUACGCUUGUCUUAUAUA [JR_SV3TOV1_Sub067] (puzzle: Sensor v3, turn-off variant 1) | 630 | 324 | 896 | – | – | –
GACUGGACGUGGUCUGGUAACAUGAGGAUCACCCAUGUAGGUCUAAGAACAUGCCUUUUGCACGCUCGUCUUAUAUA [JR_SV3TOV1_Sub064] (puzzle: Sensor v3, turn-off variant 1) | 33.3 | 34.8 | 32.7 | – | – | –
GAGAAAUUAUAGGAUAUCGAAAGUAUAAUUUAACGAGAAGGAUGAACAUGAGGAUCACCCAUGUGGUAUCAUGG [JL-ex6-3.10] (puzzle: Exclusion 6) | 283 | 88.2 | 297 | – | – | –
GAGAACUGAGGAUAUACAUGAGGAUCACCCAUGUUGAGAAGAAAGUAUAAAAGAUUGUGUAGAAGGCAGAGAGA [JR_Ex3_Sub069] (Eterna round: R97, puzzle: Exclusion 3) | – | – | – | 52.3 | 35.8 | –
